Patent publication US10227388B2, “Peptides and combination of peptides for use in immunotherapy against non-small cell lung cancer and other cancers” (immatics biotechnologies GmbH, priority 2015, dated 2019)

Target: HLA-A*02:01 (Homo sapiens, UniProt P04439, D140Y/D185E/D98H/E176V/E277Q/G131W/G231S/I119V/I121R/I166T/I218V/L300P/L318F/N151K/N90K/P208A/P217A/Q86G/Q94H/R138H/R169H/T345S)
Experiment: MHC binding assay (UV-ligand exchange, ELISA, peptide exchange yield)
Settings: binding of HLA-class I restricted peptides to HLA-A*02:01
Source text: Candidate peptides for T cell based therapies according to the present invention were further tested for their MHC binding capacity (affinity). The individual peptide-MHC complexes were produced by UV-ligand exchange, where a UV-sensitive peptide is cleaved upon UV-irradiation, and exchanged with the peptide of interest as analyzed. Only peptide candidates that can effectively bind and stabilize the peptide-receptive MHC molecules prevent dissociation of the MHC complexes. To determine the yield of the exchange reaction, an ELISA was performed based on the detection of the light chain ([…]) of stabilized MHC complexes. The assay was performed as generally described in Rodenko et al. (Rodenko et al., 2006).
96 well MAXISorp plates (NUNC) were coated over night with 2-ug/ml streptavidin in PBS at room temperature, washed 4× and blocked for 1 h at 37° C. in 2% BSA containing blocking buffer. […] Peptide-MHC monomers of the UV-exchange reaction were diluted 100 fold in blocking buffer. Samples were incubated for 1 h at 37° C., washed four times, incubated with 2-ug/ml HRP conjugated anti-β2m for 1 h at 37° C., washed again and detected with TMB solution that is stopped with […]. Absorption was measured at 450 nm. Candidate peptides that show a high exchange yield (preferably higher than 50%, most preferred higher than 75%) are generally preferred for a generation and production of antibodies or fragments thereof, and/or T cell receptors or fragments thereof, as they show sufficient avidity to the MHC molecules and prevent dissociation of the MHC complexes.

| Substance | Peptide exchange (MHC class I binding score, peptide exchange yield) |
| --- | --- |
| 371 (FLQAHLHTA; listed as Homo sapiens) [compound 371] | ″++++″ (≥75% = ++++) |
| 344 (YLQDQHLLLTV; listed as Homo sapiens) [compound 344] | ″+++″ (≥50% = +++) |
| 336 (ILLTAIVQV; listed as Homo sapiens) [compound 336] | ″+++″ (≥50% = +++) |
| 409 (LLDAMNYHL; listed as Homo sapiens) [compound 409] | ″++″ (≥20% = ++) |
| 340 (ALLSMTFPL; listed as Homo sapiens) [compound 340] | ″++++″ (≥75% = ++++) |
| 350 (ALLDVTHSELTV; listed as Homo sapiens) [compound 350] | ″+++″ (≥50% = +++) |
| 4 (GIMEHITKI; listed as Homo sapiens) [compound 4] | ″++++″ (≥75% = ++++) |
| 269 (RVLEVGALQAV; listed as Homo sapiens) [compound 269] | ″++″ (≥20% = ++) |
| 154 (ALDDGTPAL; listed as Homo sapiens) [compound 154] | ″++″ (≥20% = ++) |
| 601 (SAFPFPVTV; listed as Homo sapiens) [compound 601] | ″+++″ (≥50% = +++) |
| 451 (LLLLDTVTMQV; listed as Homo sapiens) [compound 451] | ″++″ (≥20% = ++) |
| 337 (HLLSELEAAPYL; listed as Homo sapiens) [compound 337] | ″++++″ (≥75% = ++++) |
| 126 (VLAYFLPEA; listed as Homo sapiens) [compound 126] | ″++++″ (≥75% = ++++) |
| 139 (SVMEVNSGIYRV; listed as Homo sapiens) [compound 139] | ″+++″ (≥50% = +++) |
| 180 (FQIDPHSGLVTV; listed as Homo sapiens) [compound 180] | ″++″ (≥20% = ++) |
| 579 (NLMEMVAQL; listed as Homo sapiens) [compound 579] | ″++″ (≥20% = ++) |
| 373 (SLLEDKGLAEV; listed as Homo sapiens) [compound 373] | ″++″ (≥20% = ++) |
| 102 (YLFESEGLVL; listed as Homo sapiens) [compound 102] | ″+++″ (≥50% = +++) |
| 522 (TLWYRSPEV; listed as Homo sapiens) [compound 522] | ″++″ (≥20% = ++) |

| Substance | Peptide exchange (MHC class I binding score, peptide exchange yield) |
| --- | --- |
| 330 (QLALKVEGV; listed as Homo sapiens) [compound 330] | ″+++″ (≥50% = +++) |
| 7 (SLVGLLLYL; listed as Homo sapiens) [compound 7] | ″++++″ (≥75% = ++++) |
| 164 (ALLPQPKNLTV; listed as Homo sapiens) [compound 164] | ″+++″ (≥50% = +++) |
| 189 (ALQRKLPYV; listed as Homo sapiens) [compound 189] | ″+++″ (≥50% = +++) |
| 304 (MTLGQIYYL; listed as Homo sapiens) [compound 304] | ″+++″ (≥50% = +++) |
| 610 (LLAPTPYIIGV; listed as Homo sapiens) [compound 610] | ″+++″ (≥50% = +++) |
| 364 (LLQNEQFEL; listed as Homo sapiens) [compound 364] | ″+++″ (≥50% = +++) |
| 88 (FLLVGDLMAV; listed as Homo sapiens) [compound 88] | ″+++″ (≥50% = +++) |
| 123 (NLWDLTDASVV; listed as Homo sapiens) [compound 123] | ″+++″ (≥50% = +++) |
| 582 (TLCDVILMV; listed as Homo sapiens) [compound 582] | ″+++″ (≥50% = +++) |
| 31 (YLAPELFVNV; listed as Homo sapiens) [compound 31] | ″++″ (≥20% = ++) |
| 558 (GLLENIPRV; listed as Homo sapiens) [compound 558] | ″+++″ (≥50% = +++) |
| 412 (YLDDLNEGVYI; listed as Homo sapiens) [compound 412] | ″++″ (≥20% = ++) |
| 502 (RLLAQVPGL; listed as Homo sapiens) [compound 502] | ″+++″ (≥50% = +++) |
| 121 (GVVDPRAISVL; listed as Homo sapiens) [compound 121] | ″++″ (≥20% = ++) |
| 566 (VIADGGIQNV; listed as Homo sapiens) [compound 566] | ″++″ (≥20% = ++) |
| 82 (FLSSVTYNL; listed as Homo sapiens) [compound 82] | ″+++″ (≥50% = +++) |
| 438 (KLLPLAGLYL; listed as Homo sapiens) [compound 438] | ″++++″ (≥75% = ++++) |
| 573 (ILVANAIVGV; listed as Homo sapiens) [compound 573] | ″+++″ (≥50% = +++) |

| Substance | Peptide exchange (MHC class I binding score, peptide exchange yield) |
| --- | --- |
| 439 (YLLQEIYGI; listed as Homo sapiens) [compound 439] | ″+++″ (≥50% = +++) |
| 397 (YLFGERLLEC; listed as Homo sapiens) [compound 397] | ″+++″ (≥50% = +++) |
| 354 (LILEGVDTV; listed as Homo sapiens) [compound 354] | ″++″ (≥20% = ++) |
| 623 (YLVEDIQHI; listed as Homo sapiens) [compound 623] | ″+++″ (≥50% = +++) |
| 531 (YTLPIASSIRL; listed as Homo sapiens) [compound 531] | ″+++″ (≥50% = +++) |
| 97 (SLINGSFLV; listed as Homo sapiens) [compound 97] | ″+++″ (≥50% = +++) |
| 375 (SLTETIEGV; listed as Homo sapiens) [compound 375] | ″++″ (≥20% = ++) |
| 458 (SLIDKLYNI; listed as Homo sapiens) [compound 458] | ″++″ (≥20% = ++) |
| 63 (YLLPSGGSVTL; listed as Homo sapiens) [compound 63] | ″++″ (≥20% = ++) |
| 307 (ALPVSLPQI; listed as Homo sapiens) [compound 307] | ″+++″ (≥50% = +++) |
| 9 (GAAKDLPGV; listed as Homo sapiens) [compound 9] | ″++″ (≥20% = ++) |
| 622 (RLLGEEVVRVLQA; listed as Homo sapiens) [compound 622] | ″+++″ (≥50% = +++) |
| 66 (FLDENIGGVAV; listed as Homo sapiens) [compound 66] | ″+++″ (≥50% = +++) |
| 70 (GLLDYPVGV; listed as Homo sapiens) [compound 70] | ″+++″ (≥50% = +++) |
| 278 (QLLDVVLTI; listed as Homo sapiens) [compound 278] | ″++″ (≥20% = ++) |
| 23 (VLLDDIFAQL; listed as Homo sapiens) [compound 23] | ″+++″ (≥50% = +++) |
| 225 (SLLKVLPAL; listed as Homo sapiens) [compound 225] | ″+++″ (≥50% = +++) |
| 197 (ALGPEGGRV; listed as Homo sapiens) [compound 197] | ″++″ (≥20% = ++) |
